The values that follow are results of earlier work, collected in PMC10979101.

For the data set, the target named is Gab2 503-524 (Homo sapiens) (UniProt Q9UQC2).
Sequence of UniProt Q9UQC2 (Q9UQC2 503-524): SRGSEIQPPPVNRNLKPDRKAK

Take Grb2 C-SH3 C-SH3 (from UniProt P62993): the Kd (commonly the constant that tells how readily two partners part at equilibrium) was 1700 nM.
